Measured values reported in publication PMC10320842.
Positions count from the first letter of the chain named.

B1: 13/42-mer non-G4 (mixed)
DNA 1: GTGAGATGTTGACCATGGGTGCGTCTGCGGCTGGCTCGAGGC
DNA 2: TTTGCCTCGAGCCAGC
B2: 23/42-mer non-G4 (mixed)
DNA 1: B1 DNA 1
DNA 2: TTTGCCTCGAGCCAGCCGCAGACGCA
B3: p/t non-G4 TBA (mixed)
DNA 1: TGCTTGCTGTGCTTGCTATGAGATGAT
DNA 2: ATCATCTCATA
B4: p/t non-G4 Myc (mixed)
DNA 1: AGCGTGCGTAGCGTGCGTTATGAGATGAT
DNA 2: ATCATCTCATA
B5: 23/42-mer G4 (mixed)
DNA 1: TGAGGGTGGGTAGGGTGGGTGCGTCTGCGGCTGGCTCGAGGC
DNA 2: TTTGCCTCGAGCCAGCCGCAGACGCA
B6: 13/42-mer G4 (mixed)
DNA 1: B5 DNA 1
DNA 2: TTTGCCTCGAGCCAGC

Experiments:
Assay in all cases: fluorescence polarization
yRev1 305-746 = target: T1, yRev1 305-746 (Saccharomyces cerevisiae, UniProt P12689 305-746)
T1 sequence: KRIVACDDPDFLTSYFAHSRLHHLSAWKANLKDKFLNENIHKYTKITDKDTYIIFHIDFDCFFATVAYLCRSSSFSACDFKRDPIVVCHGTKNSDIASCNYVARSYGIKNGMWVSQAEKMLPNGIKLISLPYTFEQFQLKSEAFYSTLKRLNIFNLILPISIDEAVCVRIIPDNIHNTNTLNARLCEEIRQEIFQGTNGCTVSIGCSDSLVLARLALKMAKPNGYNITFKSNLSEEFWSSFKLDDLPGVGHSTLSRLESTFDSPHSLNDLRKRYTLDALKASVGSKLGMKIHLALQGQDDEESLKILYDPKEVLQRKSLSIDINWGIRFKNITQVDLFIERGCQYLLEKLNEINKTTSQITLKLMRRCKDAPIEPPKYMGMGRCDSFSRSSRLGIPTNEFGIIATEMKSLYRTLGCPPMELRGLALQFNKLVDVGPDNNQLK

hRev1 330-833 EY = target: T2, hRev1 330-833 EY (human, UniProt Q9UBZ9 330-833, E466A;Y470A)
T2 sequence: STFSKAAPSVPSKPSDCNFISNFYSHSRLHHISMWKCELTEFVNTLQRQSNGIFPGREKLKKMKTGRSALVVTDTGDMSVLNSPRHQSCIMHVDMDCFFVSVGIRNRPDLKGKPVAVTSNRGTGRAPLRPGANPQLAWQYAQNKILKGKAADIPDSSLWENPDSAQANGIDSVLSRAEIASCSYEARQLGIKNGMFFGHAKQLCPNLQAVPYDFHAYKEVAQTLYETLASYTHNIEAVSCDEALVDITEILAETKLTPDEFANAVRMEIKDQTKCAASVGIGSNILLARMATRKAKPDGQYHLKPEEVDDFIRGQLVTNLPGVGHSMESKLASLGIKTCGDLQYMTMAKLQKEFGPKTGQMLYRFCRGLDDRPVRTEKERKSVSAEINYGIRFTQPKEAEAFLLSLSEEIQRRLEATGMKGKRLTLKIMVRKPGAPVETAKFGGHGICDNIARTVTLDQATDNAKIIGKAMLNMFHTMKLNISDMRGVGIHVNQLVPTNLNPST

hRev1 330-833 WT = target: T3, hRev1 330-833 WT (human, UniProt Q9UBZ9 330-833)
T3 sequence: T2 sequence with A137E, A141Y

| Binder | Kd (yRev1 305-746) | Kd (hRev1 330-833 EY) | Kd (hRev1 330-833 WT) |
| --- | --- | --- | --- |
| GTGAGATGTTGACCATGGGTGCGTCTGCGGCTGGCTCGAGGC (ssDNA) [ss-42-mer non-G4] | 340 ± 60 nM | 270 ± 50 nM | 85 ± 11 nM |
| B1 |  | 250 ± 30 nM | 230 ± 30 nM |
| B2 | 460 ± 50 nM | 300 ± 40 nM | 210 ± 30 nM |
| B3 | 450 ± 30 nM | 230 ± 30 nM |  |
| B4 | 480 ± 40 nM | 830 ± 120 nM |  |
| TGAGGGTGGGTAGGGTGGGTGCGTCTGCGGCTGGCTCGAGGC (structured_DNA) [ss-42-mer Myc G4] | 230 ± 50 nM | 87 ± 10 nM | 4 ± 1 nM |
| B5 |  |  | 88 ± 12 nM |
| B6 |  |  | 31 ± 6 nM |
| TTGCGTTAGCGTTAGCGTTAGCGATATGAGATGAT (ssDNA) [ss non-G4 Telo-4] | 310 ± 40 nM |  |  |
| AGCGTGCGTAGCGTGCGTTATGAGATGAT (ssDNA) [ss non-G4 Myc] | 340 ± 60 nM | 650 ± 130 nM |  |
| TGCTTGCTGTGCTTGCTATGAGATGAT (ssDNA) [ss non-G4 TBA] | 450 ± 70 nM | 150 ± 20 nM |  |
